Reference: the supplement of paper PMC9112550, “Optimization of the antimicrobial peptide Bac7 by deep mutational scanning” (BMC Biology, 2022)

tested on: Escherichia coli TOP10; experiment: shrunken log2 fold change of peptide-encoding DNA abundance (4.5 h post-induction vs induction); higher = less antimicrobial activity (less host growth inhibition); conditions: time post-induction: 4.5 h; library: site-saturation at positions 5, 18, 19, 20
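Further: peptides expressed intracellularly from a pBAD plasmid library in pooled LB shake-flask culture, induced with 0.3% L-arabinose, DNA abundance read by NGS, three biological replicates, DESeq2 with apeglm shrinkage.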

Point of comparison: RRIRLRPPRLPRPRPRPGMHPRP, “shrunken log2 fold change” value 0.299. Against it:
- RRIRARPPRLPRPRPRPHELPRP — lower, 0.0601
- RRIRPRPPRLPRPRPRPFMFPRP — lower, -0.361
- RRIRCRPPRLPRPRPRPQIGPRP — lower, -0.00649
- RRIRQRPPRLPRPRPRPILQPRP — within 0.2 log units, 0.292
- RRIRGRPPRLPRPRPRPFDAPRP — lower, -0.00556
- RRIRERPPRLPRPRPRPLYNPRP — lower, -0.264
- RRIRFRPPRLPRPRPRPVRKPRP — lower, -0.355
- RRIRKRPPRLPRPRPRPTLWPRP — higher, 1.19
- RRIRQRPPRLPRPRPRPMDKPRP — lower, 0.0321
- RRIRARPPRLPRPRPRPVDHPRP — lower, -0.0253
- RRIRARPPRLPRPRPRPRYYPRP — lower, -0.116
- RRIRYRPPRLPRPRPRPQAKPRP — lower, -0.0419
- RRIRARPPRLPRPRPRPSSGPRP — within 0.2 log units, 0.412
- RRIRERPPRLPRPRPRPPAIPRP — lower, -0.0287
- RRIRQRPPRLPRPRPRPDSNPRP — lower, -0.382
- RRIRGRPPRLPRPRPRPWSTPRP — within 0.2 log units, 0.243
- RRIRRRPPRLPRPRPRPRKLPRP — within 0.2 log units, 0.253
- RRIRFRPPRLPRPRPRPMSDPRP — lower, -0.103
- RRIRGRPPRLPRPRPRPPSHPRP — higher, 0.597
- RRIRGRPPRLPRPRPRPKARPRP — within 0.2 log units, 0.208
- RRIRFRPPRLPRPRPRPFEEPRP — lower, -0.119
- RRIRARPPRLPRPRPRPNMTPRP — within 0.2 log units, 0.147
- RRIRGRPPRLPRPRPRPREVPRP — higher, 1.05
- RRIRYRPPRLPRPRPRPAKTPRP — lower, -0.00829
- RRIRHRPPRLPRPRPRPDKHPRP — lower, -0.25
- RRIRPRPPRLPRPRPRPAKLPRP — lower, 0.0398
- RRIRTRPPRLPRPRPRPPADPRP — within 0.2 log units, 0.217
- RRIRRRPPRLPRPRPRPSLMPRP — lower, -0.0626
- RRIRHRPPRLPRPRPRPHIPPRP — lower, -0.514
- RRIRNRPPRLPRPRPRPGIRPRP — lower, 0.0989
- RRIRKRPPRLPRPRPRPCDFPRP — lower, -0.231
- RRIRWRPPRLPRPRPRPISFPRP — lower, 0.00901
- RRIRDRPPRLPRPRPRPTEQPRP — lower, -0.0141
- RRIRERPPRLPRPRPRPDNVPRP — lower, 0.0262
- RRIRWRPPRLPRPRPRPKAFPRP — lower, -0.0585
- RRIRERPPRLPRPRPRPWDAPRP — lower, -0.379
- RRIRRRPPRLPRPRPRPMDYPRP — lower, 0.0716
- RRIRSRPPRLPRPRPRPKHFPRP — lower, 0.0852
- RRIRARPPRLPRPRPRPGDQPRP — higher, 0.804
- RRIRTRPPRLPRPRPRPWYMPRP — lower, -0.0891
- RRIRERPPRLPRPRPRPSAQPRP — lower, -0.167
- RRIRMRPPRLPRPRPRPVPMPRP — within 0.2 log units, 0.44
- RRIRTRPPRLPRPRPRPWTYPRP — lower, -0.00992
- RRIRERPPRLPRPRPRPDFSPRP — lower, 0.0617
- RRIRERPPRLPRPRPRPLRQPRP — lower, 0.0463
- RRIRNRPPRLPRPRPRPRYWPRP — lower, 0.0625
- RRIRDRPPRLPRPRPRPISDPRP — lower, 0.0148
- RRIRGRPPRLPRPRPRPIPCPRP — within 0.2 log units, 0.184
- RRIRVRPPRLPRPRPRPPRFPRP — higher, 0.577
- RRIRIRPPRLPRPRPRPESKPRP — lower, -0.208
- RRIRTRPPRLPRPRPRPGMRPRP — higher, 0.744
- RRIRDRPPRLPRPRPRPKATPRP — lower, 0.00253
- RRIRRRPPRLPRPRPRPWFQPRP — lower, -0.0671
- RRIRMRPPRLPRPRPRPVPWPRP — higher, 0.581
- RRIRRRPPRLPRPRPRPGDAPRP — higher, 0.782
- RRIRGRPPRLPRPRPRPRSPPRP — within 0.2 log units, 0.449
- RRIRRRPPRLPRPRPRPLSLPRP — lower, -0.203
- RRIRCRPPRLPRPRPRPDFLPRP — lower, -0.657
- RRIRTRPPRLPRPRPRPGVEPRP — lower, -0.0469
